Consider 1 substance from publication PMC12095637.

Like-named read-outs stand apart in the source and are kept apart here.

Holding throughout (test): SEC-MALS
For orientation: Size exclusion chromatography separates by hydrodynamic size, large species first.

The target in test [1] is DdMICU (Dictyostelium discoideum MICU, residues 105–461) (Dictyostelium discoideum).
For test [2] the target is unchanged. This is another data set of the same source.
Test [3] has the same target. This is another data set of the same source.

By stoichiometry N is commonly meant a count of units in the complex or per binding partner. As to “DdMICU (Dictyostelium discoideum MICU, residues 105–461) (domain or fragment)”, the values for the stoichiometry N in test [1], in test [2] and in test [3] were 4, 2 and 2, respectively.
